Earlier results in patent US20220184026A1, “COMPOSITIONS OF FULVIC ACID AND CANNABINOID AND USES THEREOF” (Omni Bioceutical Innovations, Inc., priority 2019, published 2022).
Like-named read-outs stand apart in the source and are kept apart here.

System: chronic wounds
Parameters: key: N.S. = not statistically significant

Molecule | Results (Robson et al., venous wounds (n=36), 2.5 μg/cm^2 three times per week) | Results (Mustoe et al., pressure wounds (n=45), 1 and 3 μg/mL daily) | Results (Robson et al., pressure wounds (n=20), 1, 10, and 100 μg/mL daily)
transforming growth factor-β2 (protein, UniProt P61812 303-414, looked up) Transforming growth factor …: ALDAAYCFRNVQDNCCLRPLYIDFKRDLGWKWIHEPKGYNANFCAGACPYLWSSDTQHSRVLSLYNTINPEASASPCCVSQDLEPLTILYYIGKTPKIEQLSNMIVKSCKCS | N.S. | – | –
platelet-derived growth factor BB (protein, UniProt P01127 82-190, looked up) Platelet-derived growth …: SLGSLTIAEPAMIAECKTRTEVFEISRRLIDRTNANFLVWPPCVEVQRCSGCCNNRNVQCRPTQVQLRPVQVRKIEIVRKKPIFKKATVTLEDHLACKCETVAAARPVT | – | N.S. | N.S.
